Experimental findings from publication PMC3206214 (Molecular cell, 2011) are described below.

Common to all, as to experiment: far-Western, overlay or dot blot
The target of experiment [1] is MBP-BSU1 (Arabidopsis, UniProt Q9LR78 1-793).
The target in experiment [2] is MBP-BSU1 pre-incubated with GST-CDG1 and ATP (Arabidopsis, UniProt Q9LR78 1-793, phosphoserine at 764 (by CDG1)).
Experiment [3] has as its target T1, MBP-BSU1-S764A (Arabidopsis, UniProt Q9LR78 1-793, S764A).
T1 sequence (looked up): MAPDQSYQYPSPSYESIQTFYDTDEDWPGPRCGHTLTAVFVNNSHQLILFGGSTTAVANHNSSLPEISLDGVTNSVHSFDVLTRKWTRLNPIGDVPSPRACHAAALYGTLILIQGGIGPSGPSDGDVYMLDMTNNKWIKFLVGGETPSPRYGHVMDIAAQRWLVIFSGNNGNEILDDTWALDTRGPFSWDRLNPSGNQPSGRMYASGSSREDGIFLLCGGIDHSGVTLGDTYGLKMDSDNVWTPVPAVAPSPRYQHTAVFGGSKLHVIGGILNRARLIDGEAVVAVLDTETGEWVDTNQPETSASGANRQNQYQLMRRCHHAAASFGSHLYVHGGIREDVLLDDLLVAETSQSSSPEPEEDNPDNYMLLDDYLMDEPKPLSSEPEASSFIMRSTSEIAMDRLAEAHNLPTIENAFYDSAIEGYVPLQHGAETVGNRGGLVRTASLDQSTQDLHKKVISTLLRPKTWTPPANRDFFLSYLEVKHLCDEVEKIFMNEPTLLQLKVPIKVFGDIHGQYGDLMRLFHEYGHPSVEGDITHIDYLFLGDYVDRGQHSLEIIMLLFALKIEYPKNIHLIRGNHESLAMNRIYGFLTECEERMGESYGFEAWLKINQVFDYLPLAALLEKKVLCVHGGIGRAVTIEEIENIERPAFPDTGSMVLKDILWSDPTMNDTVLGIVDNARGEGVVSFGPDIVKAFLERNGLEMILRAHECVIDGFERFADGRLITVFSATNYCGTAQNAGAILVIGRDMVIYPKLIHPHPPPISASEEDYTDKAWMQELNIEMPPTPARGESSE

B1: GST-CDG1 (natural protein, Arabidopsis, UniProt Q9LSE1 1-432, looked up)
chain: MVSCLCFRPSRKTKLKDKSHKRSIRNQTSSSSAQPAGTAKEVDSSSSQTVVQDSSRYRCQIFSYRELAIATNSFRNESLIGRGGFGTVYKGRLSTGQNIAVKMLDQSGIQGDKEFLVEVLMLSLLHHRNLVHLFGYCAEGDQRLVVYEYMPLGSVEDHLYDLSEGQEALDWKTRMKIALGAAKGLAFLHNEAQPPVIYRDLKTSNILLDHDYKPKLSDFGLAKFGPSDDMSHVSTRVMGTHGYCAPEYANTGKLTLKSDIYSFGVVLLELISGRKALMPSSECVGNQSRYLVHWARPLFLNGRIRQIVDPRLARKGGFSNILLYRGIEVAFLCLAEEANARPSISQVVECLKYIIDHTIRKERRTRRRLLGGNKDGAGTSRSPDETMMRMLEEEEEYVTSEEAIERRRVIVDDARTWAGMNRRGATPPTPTP
With B1, the binding result in experiment [1] was “binds”.

B2: GST-CDG1 pre-incubated with GST-BRI1-K and ATP (natural protein, Arabidopsis, UniProt Q9LSE1 1-432, looked up)
chain: B1 chain
modifications: phosphoserine at 44, 47 and 234 (BRI1 phosphorylation sites, found by mass spectrometry on GST-CDG1-Y147G)
In the case of B2, in experiment [1], the binding result is recorded as “binds”.

B3: GST-BIN2 (natural protein, Arabidopsis, UniProt Q39011 1-380, looked up)
chain: MADDKEMPAAVVDGHDQVTGHIISTTIGGKNGEPKQTISYMAERVVGTGSFGIVFQAKCLETGETVAIKKVLQDRRYKNRELQLMRVMDHPNVVCLKHCFFSTTSKDELFLNLVMEYVPESLYRVLKHYSSANQRMPLVYVKLYMYQIFRGLAYIHNVAGVCHRDLKPQNLLVDPLTHQVKICDFGSAKQLVKGEANISYICSRFYRAPELIFGATEYTTSIDIWSAGCVLAELLLGQPLFPGENAVDQLVEIIKVLGTPTREEIRCMNPHYTDFRFPQIKAHPWHKIFHKRMPPEAIDFASRLLQYSPSLRCTALEACAHPFFDELREPNARLPNGRPFPPLFNFKQEVAGSSPELVNKLIPDHIKRQLGLSFLNQSGT
Consider B3, for which the binding result in experiment [2] and in experiment [3] was “binds” in each case.
